Reference: patent EP4806914A1

Tests used:
[1] = molecular target: AAV9 empty capsid (adeno-associated virus serotype 9 (AAV9)); assay: ELISA, 0.1 ug AAV9 coated on Maxisorp plate, scFv detected with HRP-labeled anti-His-Tag antibody, A450-A650; reference: blank (BSA)
[2] = molecular target: AAV9 full capsid (adeno-associated virus serotype 9 (AAV9)); assay: ELISA, 0.1 ug AAV9 coated on Maxisorp plate, scFv detected with HRP-labeled anti-His-Tag antibody, A450-A650; reference: AAV9 empty capsid sample

Row | Binder | IE/IB (ratio of ELISA absorbance for the empty capsid sample to that for the blank (BSA)) [1] | IF/IE (ratio of ELISA absorbance for the full capsid sample to that for the empty capsid sample) [2]
1 | first anti-AAV-scFv [1] (scFv) scFv: QSLEESGGGLVKPGASLTLTCTASGFSFSSYGISWFRQAPGKGLEWIGTIYGGSSGSTYYASWAKGRFTISKTSSTTMTLQMASLTAADTATYFCARDRVGGNGYADLWGPGTLVTVTSGGGGSGGGGSGGGGSELVMTQTAASVEAAVGGTVTIKCQASQSISSYLAWYQQKPGQRPKLLIYRASTLASGVSSRFKGSGSGTEYTLTISDLECDDAATYYCQSHYDIRNYGVAFGGGTEVDIKRSAAAGGGSEQKLISEEDLGGGSHHHHHH | 1.5 | 6.54
2 | second anti-AAV-scFv [2] (scFv) scFv: QSLEESGGDLVKPGASLTLTCTASGFSFSSNYWMFWVRQAPGKGLEWIAHIYGGSSGSTYYASWAKGRFTISKTSSTTVTLQMTSLTAADTATYFCATVDNGYSDLKLWGPGTLVTVTSGGGGSGGGGSGGGGSELVLTQTADSVEAGVGGTVTIKCQASQSIRNWLSWYQQKPGQPPKLLISRASTLASGVPSRFSGSGSGTEFTLTISDLECDDGATYYCQSSFYADSGEPAFGGGTEVDIKRSAAAGGGSEQKLISEEDLGGGSHHHHHH |  | 8.23
3 | third anti-AAV-scFv [3] (scFv) scFv: QSVEESGGDLVKPGASLTLTCTASGIDFSSGYDMCWVRQAPGKGLEWIGCIYTGGDSAWYASWAKGRFTISKTSSTTVTLQMTSLTGADTATYFCANDLDSGTVSIWGPGTLVTVTSGGGGSGGGGSGGGGSELVLTQTAASVSEPVGGTVTIKCQASQSISSWLSWYQQKPGQPPKLLIYQASKLASGVPSRFKGSGSGTQFTLTISDVVCDDAATYYCAGWTSSTTDGTAFGGGTEVVITGSAAAGGGSEQKLISEEDLGGGSHHHHHH | 2.22 | 6.11
4 | fourth anti-AAV-scFv [4] (scFv) scFv: QSLEESGGDLVKPGASLTLTCTASGFSFSSSAYMCWVRQAPGKGLEWIGCMHTISSVDTYYASWAKGRFAISKASSTTVTLQMTSLTAADTATYFCARDDRNGYGYPYSFDIWGPGTLVTVTSGGGGSGGGGSGGGGSELDLTQTAASVEAAVGGTITIKCQASQTISSYLAWYQQKPGQPPKLLIYRASTLASGVSSRFKGSGSGTEYTLTISDLECADAATYYCLTYYGNSHNFGGGTEVVIKGSAAAGGGSEQKLISEEDLGGGSHHHHHH | 3.09 | 7.17
